Laboratory results as given in US20070004634A1 (Novo Nordisk A/S, priority 1998, published 2007).

Columns and labels:
[1] = target: recombinant human insulin receptor (Homo sapiens, UniProt P06213); experiment: Substrate phosphorylation assay (HIR kinase); assay type: biochemical; conditions: Table 8, HIR kinase assay
Protocol: Subsequently, a 2000-fold dilution of horseradish peroxidase (HRPO) conjugated phosphotyrosine antibody (Transduction Laboratories, Cat. No. E120H) in TBS was added. The plates were incubated for 30 min and washed 3 times with TBS. TMB (3,3′,5,5′-tetramethylbenzidine; Kem-En-Tec, Copenhagen, Denmark) was added. One substrate from Kem-En-Tec was added. After 10-15 min, the reaction was stopped by the addition of 1% acetic acid. The absorbance, representing the extent of substrate phosphorylation, was measured in a spectrophotometer at a wavelength of 450 nm.

[2] = test system: free fat cells (adipocytes); experiment: Adipocyte / free fat cell (FFC) assay, 3H glucose incorporation into lipid; conditions: for FFC Pot., agonist or antagonist: Table 8, letter before the potency
Protocol: Incorporation of ^3H into the lipid phase was determined by partitioning of lipid phase into a scintillant mixture, which excludes water-soluble ^3H products.

[3] = target: T1, human insulin receptor (HIR) (Homo sapiens, UniProt P06213); experiment: Insulin receptor binding, competition with 125I-labeled insulin (HIR Kd); conditions: insulin competition
T1 construct: made in house

[4] = target: T2, insulin receptor construct transfected into 32D cells (Homo sapiens, UniProt P06213); experiment: IR autophosphorylation assay in IR transfected 32D cells (ELISA); assay type: cell-based; conditions: tested as MBP fusion peptides
T2 construct: expressed in transfected cells; host or cells: 32D cells (clone 969)
Protocol: The IR transfected 32D cells were seeded at […] in 96-well tissue culture plates and incubated overnight at 37° C. […] The culture media was decanted from the cell culture plates, and the diluted samples were added to the cells. The plates were incubated at 37° C. for 30 min. The stimulation medium was decanted from the plates, and cell lysis buffer (50 mM HEPES pH 7.2, 150 mM NaCl, 0.5% Triton X-100, 1 mM AEBSF, 10 KIU/ml aprotinin, 50 μM leupeptin, and 2 mM sodium orthovanadate) was added. The cells were lysed for 30 min.
In the ELISA portion of the assay, the cell lysates were added to the BSA-blocked anti-IR unit mAb (Upstate Biotechnology, Lake Placid, N.Y.) coated ELISA plates. After a 2 h incubation, the plates were washed 6 times with PBST and biotinylated anti-phosphotyrosine antibody (Upstate Biotechnology) is added. After another 2 h incubation, the plates were again washed 6 times. Streptavidin-Eu was then added, and the plates were incubated for 1 h. After washing the plates again, EG&G Wallac enhancement solution (100 mM acetone-potassium hydrogen pthalate, pH 3.2; 15 mM 2-naphtyltrifluoroacetate; 50 mM tri(n-octyl)-phosphine oxide; 0.1% Triton X-100) was added into each well, and the plates were placed onto a shaker for 20 min at RT.

IR = IR activity (agonist/antagonist) of MBP-peptide fusions, Table 10; test not named; conditions: MBP-peptide fusion proteins; one symbol per monomer unit
MCF-7 cells = experiment: MCF-7 cell proliferation assay, IGF-1R agonist format; assay type: cell-based, human; conditions: MCF-7 and MiaPaCa cells (Tables 27-28)
Text: ; FIGS. 65A-65F), and were used for subsequent experiments.

B1: MADYKDDDDKGSLDESFYDWFERQLGKKGGSGGSGGSGGSWLDQEWAWVQCEVYGRGCPSAAA(ETAG)PG (protein)
chain: MADYKDDDDKGSLDESFYDWFERQLGKKGGSGGSGGSGGSWLDQEWAWVQCEVYGRGCPSAAAGAPVPYPDPLEPRPG
modifications: E-tag
With B1 as the molecule, how does the “Kinase Pot. (nM)” value [1] read?
The value was “Inactive”.

And the “activity in the free fat cell (FFC) assay / at IR, in words” value [2]?
The value was “active as specific insulin receptor antagonists”.

What about the “FFC Pot., agonist or antagonist” value [2] of the same molecule?
The value was “N”.

What about the “activity in the FFC assay using the standard concentration of insulin” value [2] of the same molecule?
Its value is “inactive”.

What about the “activity in the FFC assay in the presence of a stimulating concentration of insulin” value [2] of the same molecule?
The value was “antagonists”.

What about the “IR / HIR binding affinity compared with monomer or homodimer peptides, in words” value [3] of the same molecule?
Its value is “substantially higher (several orders of magnitude) affinity”.

B2: MADYKDDDDKGSLDESFYDWFERQLGKKGGSGGSWLDQEWAWVQCEVYGRGCPSAAA(ETAG)PG (protein)
chain: MADYKDDDDKGSLDESFYDWFERQLGKKGGSGGSWLDQEWAWVQCEVYGRGCPSAAAGAPVPYPDPLEPRPG
modifications: E-tag
B2 was tested. Which “Kinase Pot. (nM)” value [1] did it give?
The value was “Inactive”.

And the “activity in the free fat cell (FFC) assay / at IR, in words” value [2]?
The value was “active as specific insulin receptor antagonists”.

What about the “FFC Pot., agonist or antagonist” value [2] of the same molecule?
The value was “N”.

What about the “activity in the FFC assay using the standard concentration of insulin” value [2] of the same molecule?
The value was “inactive”.

And the “activity in the FFC assay in the presence of a stimulating concentration of insulin” value [2]?
The value was “antagonists”.

And the “IR / HIR binding affinity compared with monomer or homodimer peptides, in words” value [3]?
Its value is “substantially higher (several orders of magnitude) affinity”.

B3: H2C-3aa-H2C: MBP fusion, H2C dimer (Site 1-Site 1) with 3 amino acid linker (protein)
chain: NNNNLGIEGRISEFIEGRAQPAMAFHENFYDWFVRQVSGGSFHENFYDWFVRQVSAAAGAPVPYPDPLEPRAA
modifications: left off: large carriers; small tags and cut ends
For B3, which “stimulation of autophosphorylation of IR” value [4] is on record?
The value was “active”.

B4: 463 (protein)
chain: NNNNLGIEGRISEFIEGRAQPAMAFHENFYDWFVRQVSGGSFHENFYDWFVRQVSAAAGAPVPYPDPLEPRAA
modifications: MBP fusion
Which “Act. (activity)” value (IR) does the source give for B4 here?
The value was “A—A”.

B5: RP30-IGF-12-D112: dimer peptide (Site 1-Site 1) (protein)
chain: ADYKDSFYSCLESLVNGGAERSDGQWEGCRGGSGGSGGSGGSCWARPCGDAANFYDWFVQQASKKAAAGAPVPYPDPLEPRPG
B5 was tested. Which “IGF-1R agonist activity, proliferation of MCF-7 and MiaPaCa cells, in words” value (MCF-7 cells) did it give?
The value was “IGF-1R agonist activity”.

B6: H2C-9aa-H2C: MBP fusion, H2C dimer (Site 1-Site 1) with 9 amino acid linker (protein)
chain: NNNNLGIEGRISEFIEGRAQPAMAFHENFYDWFVRQVSGGSGGSGGSFHENFYDWFVRQVSAAAGAPVPYPDPLEPRAA
modifications: left off: large carriers; small tags and cut ends
B6 was tested. Which “stimulation of autophosphorylation of IR” value [4] did it give?
Its value is “active”.

B7: D112-12-RP30-IGF: dimer peptide (Site 1-Site 1) (protein)
chain: ADYKDCWARPCGDAANFYDWFVQQASKKGGSGGSGGSGGSSFYSCLESLVNGGAERSDGQWEGCRAAAGAPVPYPDPLEPRPG
With B7 as the molecule, how does the “IGF-1R agonist activity, proliferation of MCF-7 and MiaPaCa cells, in words” value (MCF-7 cells) read?
The value was “IGF-1R agonist activity”.
